From the supplement of paper PMC7125110
± gives the standard error. This sample holds only a part of the variants without activity.

B1: glmS ribozyme (parent)
chain: AUAAAAGCGCCAGAACUACAGAAAUGUAGUUGACGAGGAGGAGGUUUAUCGAAUUUUCGGCGGAUGCCUCCAAA

Variants of: B1
Experiment: self-cleavage kobs at 2500 uM GlcN6P; higher = faster cleavage; RNA array
Conditions: with glucosamine-6-phosphate
Method in brief: (§1)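 Glucosamine-6-phosphate, from 40 μM to 10 mM in HEPES/KCl/Mg(OAc)2 buffer, was flowed over sequenced MiSeq chips carrying barcoded ribozyme variants transcribed in situ by E. coli RNA polymerase. A hybridised Cy3 probe tracked the variants at 37 °C as tiles were imaged over ~14 h. kobs, kcat and KM were obtained by fitting normalised per-tile medians to exponential decays and then applying weighted Michaelis–Menten fits across concentrations.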
For AUAAAAGCGCCAGAACUACAGAAAUGUAGUUGAGGAGGAGGACGUUUAUCGAUAUUUCGGCGGAUGCCUCCAAA, the “self-cleavage kobs at 2500 uM GlcN6P” value was less than 1e-05 s⁻¹. With AUAAAAGCGCCAGAACUACAGAAAUGUAGUAGACGAGGAGGAGGUUUAGCGAAUUUUCGGCGGAUGCCUCCAAA the “self-cleavage kobs at 2500 uM GlcN6P” value was 0.000183 ± 3.1e-05 s⁻¹. For AUAAAAGCGCCAGAACUACAGAAAUGUAGUUGACGAGGAAGACGUUUAUCGAAUUUUCGCCGGAUGUCUCCAAA, the “self-cleavage kobs at 2500 uM GlcN6P” value was less than 1e-05 s⁻¹. AUAAAAGCGCCAGAACUACAGAAAUGUAGUUGACGCGGAGGAGGUUUAUUGAAUUUUCAGCGGAUGCCUCCAAA was tested, and the “self-cleavage kobs at 2500 uM GlcN6P” value was less than 1e-05 s⁻¹. AUAAAAGCGCCAGAACUACAGAAAUGUAGUUGACGAGGAGGAGGUUUAUCGAAUUGUCGGCGGAUCCCUCUAAA was tested, and the “self-cleavage kobs at 2500 uM GlcN6P” value was 0.000269 ± 5.5e-05 s⁻¹. For AUAAAUGCGCCAGGACUACAGAAAUGUAGUUGACGAGGAGGAGGUUUACCGAAUUUUCGGCGGAUGCCUCCAAA, the “self-cleavage kobs at 2500 uM GlcN6P” value was less than 1e-05 s⁻¹. In the case of AUAAAAGCGCCAGAACUACAGAAAUGUAGUCGACGAGGAGGAGGUUUAUCGAAUAUUCGGCGCAUGCCGCCAAA, the “self-cleavage kobs at 2500 uM GlcN6P” value is reported as 0.000106 ± 3.8e-05 s⁻¹. AUAAAAGCGCCAGAACUACAGAAAUGUAGUUGACGAGGAGGAGGUUUAUCGAAGUUACGGCGGAUGGCUCCAAA was tested, and the “self-cleavage kobs at 2500 uM GlcN6P” value was 7.42e-05 ± 2.5e-05 s⁻¹. For AUAAAAGCGCCAUAACUACAGAAAUGUAGGUCACGAGGAGGAGGUUUAUCGAAUUUUCGGCGGAUGCCUCCAAA, the “self-cleavage kobs at 2500 uM GlcN6P” value was 4.58e-05 ± 1.5e-05 s⁻¹. AUAAAAGCGCUAGAACUACAGAAAUGUAGUUGACGAGGAGGAGUUUUAUCGAAUUUUCGGCGGAUGCCGCCAAA was tested, and the “self-cleavage kobs at 2500 uM GlcN6P” value was less than 1e-05 s⁻¹. In the case of AUAAAAGCGCCAGACCUACAGAAAUGUAGUUGACGAGGAGGAGGUUUAUCGAAUUUUCGGCGGAUGCCGCCAAA, the “self-cleavage kobs at 2500 uM GlcN6P” value is reported as 7.29e-05 ± 2.2e-05 s⁻¹. For AUAAAAGCGCCAGAACUACAGAAAUGUAGUUCACGACGAGGAGGUUUAUAGAAUUUUCGCCGGAUGCCUCCAAA, the “self-cleavage kobs at 2500 uM GlcN6P” value was less than 1e-05 s⁻¹. With AUAAAAGCGCCAGAGCUACAGAAAUGUAGUUGACGAGGAGGAGGUUUAUCGAAUUUUCGUCGCAUGCCUCCAAA the “self-cleavage kobs at 2500 uM GlcN6P” value was less than 1e-05 s⁻¹. In the case of AUAAAAGCGACUGAACUACAGAAAUGUAGUUGACGAUGAGGAGUUUUAUGGAGUUUUCGGCGGAUGCUUCCAAA, the “self-cleavage kobs at 2500 uM GlcN6P” value is reported as less than 1e-05 s⁻¹. AUAAAAGCGCCAGAACUACAGAAAUGUACUUGACGAGGAAGUGGUUUAUCGAAUUUUCGUUGGAUGCCUCCAAA was tested, and the “self-cleavage kobs at 2500 uM GlcN6P” value was less than 1e-05 s⁻¹. In the case of AUAAAAGCGCCAGAACUACAGAAAUGUAGUUGACGAGGAGGAGGUUUAUCGAAUUUGAGGCGGAUGCCUUGAAA, the “self-cleavage kobs at 2500 uM GlcN6P” value is reported as 9.31e-05 ± 2.5e-05 s⁻¹. AUAAAAGCGCCAGAGCUACAGAAAUGUAGUUGACGAGGAGGAGGUUUAUCGAAUUUACGGCGGAUGCAUCCAAA was tested, and the “self-cleavage kobs at 2500 uM GlcN6P” value was 5.07e-05 ± 1.9e-05 s⁻¹. With AUAAAAGCGUCGGAGCUACAGAAAUGUACUUGAAGAGGAGGAGGUUUAUCGAAUUUUCGGCGGAUGCCUCCAAA the “self-cleavage kobs at 2500 uM GlcN6P” value was less than 1e-05 s⁻¹. In the case of AUAAAAGCGCCAGAACUAAAGAAAUGUAGUUGACGAGGAGGAGAUUUAUCGAAUUUUCGGCGGAUGCCUCCAAA, the “self-cleavage kobs at 2500 uM GlcN6P” value is reported as 0.000112 ± 4e-05 s⁻¹. In the case of AUAAAAGCGCCAGAAUUACAGAAAUGUAGUUUACGAGGAGGAGGUGUAUCGAAUUUUCGGCGGAUGCCUCCAAA, the “self-cleavage kobs at 2500 uM GlcN6P” value is reported as 6.51e-05 ± 2.5e-05 s⁻¹. AUAAAAGCGCCAGAACUAAAGAAAUGUAGUUGACGAGGAGGCGGUUUAUCGAAUUUUCGGCGGAUGCCUCCAAA was tested, and the “self-cleavage kobs at 2500 uM GlcN6P” value was less than 1e-05 s⁻¹. For AUAAAAGCGCCAGAACUACAGAAAUGUAGGUGACGAGGAGGAGGUUUAUCGAAUUUUCGGCGGGUGGCUCCAAA, the “self-cleavage kobs at 2500 uM GlcN6P” value was 6.44e-05 ± 3e-05 s⁻¹. AUAAAAGCGACUGAACUACAGAAAUGUAGUGGACGAGGAGGAGGUCUAUCGAAUUUUCGGCGGAUGCCUCCAAA was tested, and the “self-cleavage kobs at 2500 uM GlcN6P” value was less than 1e-05 s⁻¹. For AUAAAAGCGCCAGUACUACAGAAAUGUAGUUGACGAGGAGGAGGUUUAUUGAAUUUUCGGCGCAUGCCUCCAAA, the “self-cleavage kobs at 2500 uM GlcN6P” value was less than 1e-05 s⁻¹. AUAAAAGCGCCAGAACUACAGAAAUGUAGUUGACGAGGAGGAGGUUUAUUGAAUUUUCGGUGGAUGCCACCAAA was tested, and the “self-cleavage kobs at 2500 uM GlcN6P” value was 0.000118 ± 3.5e-05 s⁻¹. With AUAAAAGCGCCAGUACUACAGAAAUGUAGUUGACGAGGAGGACGGUUAUCGAAUUUUCGGCGGAUGCCUCCAAA the “self-cleavage kobs at 2500 uM GlcN6P” value was 0.000172 ± 4.1e-05 s⁻¹. For AUAAAAGAGCCAGAACUACAGAAAUGUAGUUGAGGAGGAGGAGGUUUAUCGAAUUUUCGGCGGAUCCCUCCAAA, the “self-cleavage kobs at 2500 uM GlcN6P” value was less than 1e-05 s⁻¹. With AUAAAAACGCCAGAACUACAGAAAUGUAGUUGACGAGGAGGUGGUUUAUCGAAUUUUCGGCGGAUGCCUCCAAA the “self-cleavage kobs at 2500 uM GlcN6P” value was less than 1e-05 s⁻¹. With AUAAAAGCGCCAGAACUACAGAAAUGUAGUUGUCGAGGAGGGGGUUUAUCGAAUUUUCGGAGGAUACCUCCAAA the “self-cleavage kobs at 2500 uM GlcN6P” value was less than 1e-05 s⁻¹. In the case of AUAAAUGCGCCAGAACUACAGAAAUGUAGUUGACGAGGAGGAGUUUUAUCGAAUUUUCGGCGCAUGCCUCCAAA, the “self-cleavage kobs at 2500 uM GlcN6P” value is reported as less than 1e-05 s⁻¹. In the case of CUAAAAGCGCCAGAACUACAGAAAUGUAGUUGACGAGGAGGAGGUUUAUCGAAUUUCCGGCGGAUGCCUCCAAA, the “self-cleavage kobs at 2500 uM GlcN6P” value is reported as 9.88e-05 ± 2.4e-05 s⁻¹.

Variants of: B1
Experiment: self-cleavage kobs at 10000 uM GlcN6P; higher = faster cleavage; RNA array
Conditions: with glucosamine-6-phosphate
Method in brief: as §1
With AUAAAAGCGCCAGAACUACAGAAAUGUAGUAGACGAGGAGGAGGUUUAGCGAAUUUUCGGCGGAUGCCUCCAAA the “self-cleavage kobs at 10000 uM GlcN6P” value was 0.000277 ± 4.5e-05 s⁻¹. With AUAAAAGCGCCAGAACUACAGAAAUGUAGUUGACGAGGAAGACGUUUAUCGAAUUUUCGCCGGAUGUCUCCAAA the “self-cleavage kobs at 10000 uM GlcN6P” value was less than 1e-05 s⁻¹. For AUAAAAGCGCCAGAACUACAGAAAUGUAGUUGACGAGGAGGAGGUUUAUCGAAGUUACGGCGGAUGGCUCCAAA, the “self-cleavage kobs at 10000 uM GlcN6P” value was 7.25e-05 ± 1.8e-05 s⁻¹. For AUAAAAGCGCCAGAAUUACAGAAAUGUAGUUUACGAGGAGGAGGUGUAUCGAAUUUUCGGCGGAUGCCUCCAAA, the “self-cleavage kobs at 10000 uM GlcN6P” value was 0.000138 ± 2.5e-05 s⁻¹. In the case of AUAAAAGCGCCAGUACUACAGAAAUGUAGUUGACGAGGAGGACGGUUAUCGAAUUUUCGGCGGAUGCCUCCAAA, the “self-cleavage kobs at 10000 uM GlcN6P” value is reported as 0.000252 ± 6.9e-05 s⁻¹. For AUAAAAACGCCAGAACUACAGAAAUGUAGUUGACGAGGAGGUGGUUUAUCGAAUUUUCGGCGGAUGCCUCCAAA, the “self-cleavage kobs at 10000 uM GlcN6P” value was less than 1e-05 s⁻¹.
